Measurements as given in patent publication US20240218054A1 (MABLOC, published 2024).
Substitutions are numbered along the chain they refer to.

T1: recombinant YFV-17D DIII protein (Yellow fever virus, strain 17D, UniProt P03314 578-682)
T1 construct: also called domain III
T1 sequence: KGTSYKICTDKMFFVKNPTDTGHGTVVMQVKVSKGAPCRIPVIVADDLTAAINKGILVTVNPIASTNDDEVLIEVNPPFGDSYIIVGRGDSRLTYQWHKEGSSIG

B1: ADI-45161 (antibody, V domains shown)
VH: QVQLQESGGGVVQPGRSLRLSCAASGFTFSSYGMHWVRQAPGKGLEWVAVIWYDGSNKYYADSVKGRFTISRDNSKNTLYLQMNSLRAEDTAVYYCARDVGYQLLQVYGMDVWGQGTTVTVSS
VL: QSALTQPASVSGSPGQSITISCTGTSSDVGGYNYVSWYQQHPGKAPKLMIYEVSNRPSGVSNRFSGSKSGNTASLTISGLQAEDEADYYCSSYTSSSTLDVVFGGGTKLTVL
notes: full-length IgG; also called Antibody Number 92
B2: ADI-42193 (antibody, V domains shown)
VH: EVQLLESGGGLVQPGGSLRLSCAASGFIFSDHYMAWVRQAPGKGLEWVGRSRNRPNSYTTEYAASAKGRFTISRDDSKTSLYLQMNSLKTEDTAVYYCAREHGDYGLDYWGQGTLVTVSS
VL: QPVLIQPPSASGTPGQRVTISCSGSSSNFGSNFVYWYQQLPGTAPKLLIYRVNQRPSGVPDRFSGSKSGTSASLAISGLRSEDEADYYCATWDVSLSNDVLFGGGTKLTVL
notes: full-length IgG; also called Antibody Number 95
B3: ADI-49590 (antibody, V domains shown)
VH: QVQLVQSGAEVKKPGASVKVSCKASGYTFTGYYMHWVRQAPGQGLEWMGRINPNSGGTNYAQKFQGRVTMTRDTSISTAYMELSRLRSDDTAVYYCYVDYYYDSSGYYSPFDYWGQGTLVTVSS
VL: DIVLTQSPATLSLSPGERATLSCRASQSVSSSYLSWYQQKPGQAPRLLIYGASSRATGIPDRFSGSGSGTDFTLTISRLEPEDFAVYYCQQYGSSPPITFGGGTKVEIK
notes: full-length IgG; also called Antibody Number 96
B4: ADI-45090 (antibody, V domains shown)
VH: EVQLVESGGGLVQPGRPLRLSCAASGFAFSSYGMHWVRQAPGKGLEWVALIRFDGTIKYYADSVKGRFTISRDNAKNTLYLQMSSLRAEDTAVYYCARDLEVGAEYLYYHYGMDVWGQGTTVTVSS
VL: QPVLTQPPSASGTPGQRVTIFCSGSRSNIGTYTINWYQKLPGTAPKLLIYSNNRGPSGVPDRFSGSQSGTSASLAISGLQPEDEADYYCAAWDDSLNGWVFGGGTKVTVL
notes: full-length IgG; also called Antibody Number 4
B5: ADI-45083 (antibody, V domains shown)
VH: QVQLVESGPGLVKPSGTLSLTCAVSGGSISSDYWWSWVRQPPGKGLEYIGEIYHTGSTNYNPSLKSRVTVSLDRSKNVFSLTLRSVTAADTAVYYCARSHWRSPQSVTFDLWGQGTTVTVSS
VL: QPVLTQPPSVSAAPGQKVTISCSGSNSNIGNYYVSWYQQFPGTAPKLLIYDNNKRPSGIPDRFSGSKSGTSATLAITGLQTGDEAHYYCGTWDTSSLSAGRVFGGGTKLTVL
notes: full-length IgG; also called Antibody Number 9
B6: ADI-48968 (antibody, V domains shown)
VH: EVQLLESGGGLGQPGGSLRLSCVASKFTFSDHYMDWVRQAPGKGLEWVGRIRNKPNGYTTEYAASVKGRFIISRDDSKNSLYLQMKSLKIEDTAIYYCVRVWGGEAARYDYWGQGALVTVSS
VL: DIRLTQSPSSLSASVGDRVTITCRASQDIRKFLNWYQQKLGKAPSLLIYGASSLQSGVPSRFSGSGSGTDFTLTISSLQPEDFAIYYCQHASTTPWTFGQGTKVEIK
notes: full-length IgG; also called Antibody Number 98
B7: ADI-42844 (antibody, V domains shown)
VH: QVQLVESGGGVVQPGRSLRLSCTASGFTFSSYGMHWVRQAPGKGPEWVAVISYDGSKKYFADSVKGRFTISRDNSKNTLYLQMNSLRAEDTAVYSCAKGYDSNGYYYIDYWGQGTPVTVSS
VL: DIRVTQSPSTLSASVGDRVTITCRASQSISSWLAWYQQKPGKAPKLLIYRASSLESGVPSRFSGSGSGTEFTLTISSLQPDDFATYYCQQYNRYPYTFGQGTKVEIK
notes: full-length IgG; also called Antibody Number 91
B8: ADI-48910 (antibody, V domains shown)
VH: EVQLVQSGGGLVQRGGSLRLSCAASGFTFSSYAMTWVRQAPGKGLEWVSDMNHSGDRTNYADSVRGRFTISRDNSKNTLYLQMNSLRAEDTAVYYCAKYYDSSGYYYFHSWGQGTLVTVSS
VL: B7 VL with V4L, T20S, S31D, S53G, S56T, E105D
notes: full-length IgG; also called Antibody Number 94
B9: ADI-45076 (antibody, V domains shown)
VH: EVQLVESGGGFVQPGGSLRLSCAASGFIFSDYYMDWVRQAPGKGLEWVGRIRNKPNSYTTEYAASVKGRFSISRDDLKNSLYLQMNSLKTEDTAEYYCARVDGEEVALIYWGQGALVTVSS
VL: DIQMTQSPSSLSASVGDRVTITCRASQTITRYMNWYQQKPGEAPKLLIYATSSLQSGVPSRFSGSGSGTDFTLTITNLQPADFATYYCQQSSTTRWTFGQGTKVDIK
notes: full-length IgG; also called Antibody Number 97
B10: ADI-45113 (antibody, V domains shown)
VH: QVQLVQSGGGLVQPGGSLRLSCAASGFTFSSYAMSWVRQAPGKGLEWVSAISGSGGSTYYADSVKGRFTISRDNSKNTLHLQMSSLRAEDTAVYYCAKDPKYSSGWWAFDYWGQGTLVTVSS
VL: EIVMTQSPATLSVSPGERATLSCRASQSVSSNLAWYQQKPGQAPRLLIYGASTRATGIPARFSGSGSGTEFTLTISSLQSEDFALYYCQQYDDWPLFGQGTRLEIK
notes: full-length IgG; also called Antibody Number 20
B11: ADI-42213 (antibody, V domains shown)
VH: EVQLLESGGGLVQPGGSLRLSCAASGFTFTYYAMSWVRQAPGKGLEWVSGISGSGDSTYNADSVKGRVTISRDNSKNTLYLQMNSLRAEDTAVYYCAKDGGYSTDWYFDLWGRGTLVTVSS
VL: EIVLTQSPGTLSLSPGERATLSCRASQSVSSSFLAWYQQKPGQAPRLLIYGASSRATGIPDRFSGSGSGTDFTLTIRRLEPEDFAVYYCQQYGSSRRTFGQGTKVEIK
notes: full-length IgG; also called Antibody Number 90
B12: ADI-49147 (antibody, V domains shown)
VH: QVQLQESGGDLVQPGGSLRLSCAASGFTFSNYAMNWVRQAPGKGLEWVSAINRGGDSTYYADSVKGRFTISRDNSKNTLYLQMNSLRAEDTAVYYCAKDHGGKYGWWYFDLWGRGTLVTVSS
VL: DIRVTQSPATLSVSPGERATLSCRASQSVSSNLAWYQQKPGQAPRLLIYDASNRATGIPVRFSGSGSGTDFTLTISSLQSEDFAVYYCQQYDNWPLTFGGGTKVEIK
notes: full-length IgG; also called Antibody Number 2
B13: ADI-45075 (antibody, V domains shown)
VH: EVQLLESGGGLVQPGGSLRLSCAASGFTFSSYAMSWVRQAPGKGLEWVSVISDSGGSTYYADSVKGRFTISRDNSKNTLYLQMNSLRAEDTAVYYCAKDLRGVGGWYYFDYWGQGTLVTVSS
VL: EIVLTQSPSSLSASVGDRVTITCQASQDISNFLNWYQQKPGKAPKLLIYDASSLETGVPSRFSGSGSGTDFTFTISSLQPEDIATYYCQQYDNLPLTFGGGTKLEIK
notes: full-length IgG; also called Antibody Number 45
B14: ADI-42192 (antibody, V domains shown)
VH: EVQLLESGPGLVKPSQTLSLTCSVSGGSISSGGYYWTWIRQPPGKGLEWIGYIYYTGSTYYNPSLKSRVTISVDTSKNQFSLKLSSVTAADTAVYFCARAEYDTSGYYQQRLPEYFQHWGQGTLVTVSS
VL: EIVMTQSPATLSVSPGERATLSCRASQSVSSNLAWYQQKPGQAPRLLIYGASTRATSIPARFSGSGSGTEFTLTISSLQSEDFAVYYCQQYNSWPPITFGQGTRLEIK
notes: full-length IgG; also called Antibody Number 93
B15: ADI-49141 (antibody, V domains shown)
VH: EVQLQESGPGLVKPSGTLSLTCAVSGGSISSSNWWTWVRQPPGKGLEWIGEIYHSGSTNYNPSLESRVTMSVDKSKNQFSLKLSSVTAADTAVYYCARVQTSHSELWFGEFGADWGQGTLVTVSS
VL: DIVMTQSPATLSVSPGERATLSCRASQSVSSNLAWYQQKPGQAPRLLIYGASTRATGIPARFSGSGSGTEFTLTISSLQSEDFAVYSCQQYNTWPKTFGQGTKVEIK
notes: full-length IgG; also called Antibody Number 89
B16: ADI-42212 (antibody, V domains shown)
VH: EVQLVESGGGLVQPGGSLRLSCAASGFTFSDHYMDWVRQAPGKGLEWVGRSRNKPNSYITEYAASVKGRFTISRDDSKNSLYLQMNSLKTEDTAVYYCSRHMGFGLDLWGQGTLVTVSS
VL: SYELTQPPSVSVSPGQTATITCSGDKLGYTYTCWYQQKPGQSPVLVIYQDTKRPSGIPERFSGSNSGNTATLTITGTQAMDEADYYCQAWDTTTAGGVFGGGTKLTVL
notes: full-length IgG; also called Antibody Number 99

The binders below were run against T2, recombinant YFV E protein (soluble E, sE; YFV Asibi strain) (Yellow fever virus, Asibi strain, UniProt Q6DV88 286-678) (assay: BLI monovalent (IgG on tip)).
T2 construct: also called YFV E antigen; YFV E monomer
T2 sequence (Q6DV88 286-678): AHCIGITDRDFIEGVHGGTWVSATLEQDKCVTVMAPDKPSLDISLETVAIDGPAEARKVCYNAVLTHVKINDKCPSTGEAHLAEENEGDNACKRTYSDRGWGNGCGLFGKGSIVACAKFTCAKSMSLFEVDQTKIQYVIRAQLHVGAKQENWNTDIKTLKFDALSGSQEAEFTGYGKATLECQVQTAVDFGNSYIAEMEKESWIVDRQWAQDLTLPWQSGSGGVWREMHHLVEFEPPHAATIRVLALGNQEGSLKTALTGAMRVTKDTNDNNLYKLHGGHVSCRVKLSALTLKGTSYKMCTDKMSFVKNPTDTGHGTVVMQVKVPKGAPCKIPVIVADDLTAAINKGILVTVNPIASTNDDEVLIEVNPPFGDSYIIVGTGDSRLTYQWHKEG
For B1, the Kd was > 100 nM. B2 gave a Kd of 0.922 nM. B3 showed a Kd of 109 nM. B4 gave a Kd of 2.11 nM. For B5, the Kd was 3.45 nM. With B6 the Kd was 0.963 nM. For B7, the Kd was 137 nM. In the case of B8, the Kd is reported as 2.42 nM. B9 showed a Kd of 0.882 nM. For B10, the Kd was 253 nM. In the case of B11, the Kd is reported as 15.2 nM. B12 was tested, and the Kd was 3.73 nM. B13 was tested, and the Kd was 26.1 nM. Work on B14 yielded a Kd of 204 nM. For B15, the Kd was 187 nM. Work on B16 yielded a Kd of 0.884 nM.

These binders were tested against T1, recombinant YFV-17D DIII protein (assay: BLI, recombinant YFV-17D DIII protein).
B4: binds. B10: binds. B12: binds. B13: binds.
